Biological target: T1, TECPR1 (purified, on GUVs) (human, UniProt Q7Z6L1 1-1165)
T1 construct: TECPR1, human, full-length cDNA of isoform 1, cloned into pCoofy29; TECPR1 could be labeled on native cysteines (Alexa Fluor 488 or CF405M); also called recombinant TECPR1; source: High Five insect cells, purified (Ni-NTA, PreScission, Superdex 200); not shown: His6, N-terminal, cleaved; MBP, N-terminal, cleaved
T1 sequence (looked up): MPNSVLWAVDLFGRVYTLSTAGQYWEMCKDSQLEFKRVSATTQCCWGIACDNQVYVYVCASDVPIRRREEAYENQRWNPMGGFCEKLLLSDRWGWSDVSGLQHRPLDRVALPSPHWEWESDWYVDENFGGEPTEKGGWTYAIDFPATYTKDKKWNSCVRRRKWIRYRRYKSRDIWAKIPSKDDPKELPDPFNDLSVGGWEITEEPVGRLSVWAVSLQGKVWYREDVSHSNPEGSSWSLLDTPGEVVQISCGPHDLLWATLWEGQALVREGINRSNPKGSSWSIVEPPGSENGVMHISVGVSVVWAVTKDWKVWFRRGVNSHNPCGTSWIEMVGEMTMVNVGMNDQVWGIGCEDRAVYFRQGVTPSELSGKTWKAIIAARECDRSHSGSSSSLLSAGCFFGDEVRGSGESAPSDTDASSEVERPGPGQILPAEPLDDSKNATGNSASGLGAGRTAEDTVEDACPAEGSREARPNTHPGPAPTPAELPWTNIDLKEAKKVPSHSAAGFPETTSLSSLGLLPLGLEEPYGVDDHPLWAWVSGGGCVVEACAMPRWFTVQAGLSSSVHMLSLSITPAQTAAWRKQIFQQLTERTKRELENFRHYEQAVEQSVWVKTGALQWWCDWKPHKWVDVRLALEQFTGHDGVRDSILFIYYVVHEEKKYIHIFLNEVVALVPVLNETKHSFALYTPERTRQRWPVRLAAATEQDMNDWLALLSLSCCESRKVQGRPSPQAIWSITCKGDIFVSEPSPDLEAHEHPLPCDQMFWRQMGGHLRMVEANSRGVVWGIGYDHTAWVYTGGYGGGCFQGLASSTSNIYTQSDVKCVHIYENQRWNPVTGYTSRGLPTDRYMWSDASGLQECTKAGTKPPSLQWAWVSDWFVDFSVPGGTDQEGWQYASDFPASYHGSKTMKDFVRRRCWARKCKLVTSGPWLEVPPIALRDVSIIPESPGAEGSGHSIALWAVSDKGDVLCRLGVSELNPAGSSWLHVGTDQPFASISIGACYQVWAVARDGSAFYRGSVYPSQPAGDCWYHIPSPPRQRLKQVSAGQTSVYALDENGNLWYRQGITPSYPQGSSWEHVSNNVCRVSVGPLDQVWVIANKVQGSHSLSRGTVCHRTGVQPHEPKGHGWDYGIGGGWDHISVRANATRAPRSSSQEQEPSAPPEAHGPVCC
Test: recruitment of SUVs to GUVs seen by fluorescence microscopy; reconstitution with purified proteins: Alexa488-LC3C conjugated to SUVs coincubated with GUVs decorated with TECPR1; GUVs without TECPR1 as control
Details: both partners purified

B1: Alexa488-labeled LC3C conjugated to SUVs (natural protein, human, UniProt Q9BXW4 1-126, looked up)
chain: MPPPQKIPSVRPFKQRKSLAIRQEEVAGIRAKFPNKIPVVVERYPRETFLPPLDKTKFLVPQELTMTQFLSIIRSRMVLRATEAFYLLVNNKSLVSMSATMAEIYRDYKDEDGFVYMTYASQETFG
modifications: Alexa Fluor 488 C5 maleimide on the introduced N-terminal cysteine; conjugated to SUVs
binding result: binds
